Results from publication PMC9303464.

Tests used:
[1] = molecular target: NepR2 (Sphingopyxis granuli TFA); test: SPR
[2] = molecular target: NepR1 (Sphingopyxis granuli TFA); test: SPR

Kd [1] [nM]	Kd [2] [nM]	Substance
38.8		EcfG1 (natural protein)
23.5	14.2	EcfG2 (natural protein)
